Source: US20170210823A1 (YEDA RESEARCH AND DEVELOPMENT, published 2017)

Tests used:
[1] = molecular target: T1, human LOXL2 (full length enzyme) (human, UniProt Q9Y4K0 26-774); assay: microscale thermophoresis in solution; x axis printed as [LOXL2], nM; LOXL2 construct not specified on the sheet or in the legend
T1 construct: also called lysyl-oxidase like protein-2
T1 sequence: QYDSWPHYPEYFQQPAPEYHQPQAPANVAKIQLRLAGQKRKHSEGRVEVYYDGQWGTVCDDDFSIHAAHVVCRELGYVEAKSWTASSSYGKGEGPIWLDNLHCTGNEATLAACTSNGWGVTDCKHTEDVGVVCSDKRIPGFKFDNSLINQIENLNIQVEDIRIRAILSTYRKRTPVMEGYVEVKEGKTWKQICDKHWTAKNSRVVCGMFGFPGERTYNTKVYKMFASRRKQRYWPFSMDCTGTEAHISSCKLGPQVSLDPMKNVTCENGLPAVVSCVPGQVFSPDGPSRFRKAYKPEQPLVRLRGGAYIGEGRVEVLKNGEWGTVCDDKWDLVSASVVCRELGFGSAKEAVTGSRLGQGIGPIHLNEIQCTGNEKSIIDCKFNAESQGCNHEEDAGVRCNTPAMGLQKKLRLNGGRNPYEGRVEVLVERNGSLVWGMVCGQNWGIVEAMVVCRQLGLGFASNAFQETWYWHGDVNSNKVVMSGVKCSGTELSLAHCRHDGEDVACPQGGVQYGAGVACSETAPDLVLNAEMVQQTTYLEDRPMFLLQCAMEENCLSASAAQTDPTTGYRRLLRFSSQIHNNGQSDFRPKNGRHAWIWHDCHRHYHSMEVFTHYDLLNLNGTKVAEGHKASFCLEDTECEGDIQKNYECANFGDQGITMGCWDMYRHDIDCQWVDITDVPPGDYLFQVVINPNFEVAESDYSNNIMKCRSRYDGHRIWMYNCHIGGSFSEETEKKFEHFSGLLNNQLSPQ

[2] = molecular target: T2, catalytic domain of human LOXL2 (545-775) (human, UniProt Q9Y4K0 545-774); assay: ELISA; plate coated with the catalytic domain of LOXL2, antibody titrated
T2 construct: No vector-derived tag is stated; also called recombinant catalytic domain of LOXL2; catalytic fragment
Procedure: (§1) A 96 well plate (Nunc) was coated with LOXL2 or BSA at 5 μg/ml. After the plate was coated, it was incubated with the antibody for 1 h at 25° C. The bound antibody was detected by peroxidase-conjugated antibody goat anti mouse according to standard procedures. The EC₅₀ was calculated from a four-parametric sigmoidal-curve fitting analysis.

[3] = molecular target: T2, catalytic domain of human LOXL2 …; assay: ELISA; plate coated with the catalytic domain of LOXL2, antibody titrated, detection with peroxidase-conjugated goat anti-mouse antibody
Procedure: as §1

- Kd [1]: 6.97 nM
- EC50 (read off the curve) [2]: ~0.4 nM
- EC50 [3]: 0.35 nM
B1: GS341 antibody (antibody, V domains shown)
VH: QVQLQQPGAELVRPGASVKLSCKASGYSFTNYWMSWVKQRPGQGLEWIGMIHPSDTDIRLHQKFKDKATLTVDKSSSTAYVQLSSPTSEDSAVYYCARGGQLGPWFAYWGQGTLVTVSA
VL: DIVMTQSPASLAVSLGQRATISCRASKSVSTSGYSYMHWYQQKPGQPPKLLIYLASNLESGVPARFSGSGSGTFTLNIHPVEEEDAATYYCQHSRELPWTFGGGTKLEIKR
notes: also called A341; ab341
